In the supplement of paper PMC12042874:
± gives the uncertainty stated by the source.

experiment: amyloid nucleation score (Sup35N fusion, yeast selection) (log enrichment); library NNK1; higher = more nucleation; inactive = no reads after selection
Method in brief: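 The nucleation score equals the log enrichment of output over input reads from DiMSum, centred on the mode score of non-aggregating sequences. It was computed only for sequences with 100 or more input reads. The reads came from Illumina sequencing of plasmid inserts from psi-negative yeast expressing Sup35N fused to peptides of 20 random codons, induced with 100 μM copper sulfate for 24 hours and grown 7 days at 30°C without adenine and uracil.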

| Substance | amyloid nucleation score |
| --- | --- |
| MNYRQLL | 0.177 ± 0.7 |
| EYLSA | 0.403 ± 0.55 |
| YLPYVNLAG | -1.07 ± 2.4 |
| ESNVWICAPPTDPWAIQTLR | -0.149 ± 0.51 |
| MSRFLTLMHFERNFV | 0.566 ± 0.42 |
| TMLMESTIRRRC | -0.021 ± 0.54 |
| ARSSK | -0.081 ± 0.23 |
| CDRAIPLSIHTELMYRRSRG | 1.11 ± 0.38 |
| GHGWITMVTDCR | 1.87 ± 0.4 |
| GKIRSKKGQSLGQNT | -1.16 ± 1.2 |
| SGTAVSIVAWYTMTQLDHAG | -0.001 ± 0.37 |
| SSVKTVDLNCI | -0.125 ± 0.37 |
| PECTNDKVY | 0.541 ± 0.52 |
| TWYILMTRGILGTAATHIRL | -0.234 ± 0.91 |
| AGGRFCLLKFLTRFASCRGE | 2.44 ± 0.24 |
| TIFLINIPANFSMGMLHAHR | 0.303 ± 0.86 |
| CQYVCRDNFDYQTSSSCGCD | inactive |
| LFSSLRRGRHSLPIPLPMNL | 0.013 ± 0.36 |
| RYLFLDWSSESRCPFAASNE | 0.104 ± 0.84 |
| GVDLVSAIYGTSGHTVWMAF | -0.054 ± 0.52 |
| IRPLIFVIGHN | 0.794 ± 0.5 |
| LCTFIVWKMPICPMWWGW | 0.255 ± 0.2 |

| Substance | amyloid nucleation score |
| --- | --- |
| NCCCEAKTWRLIDCIITIVI | 0.711 ± 0.13 |
| SHRYFKWLRSIDEEVVESL | 0.677 ± 0.9 |
| TTTKLGPMLLGRNSVYCV | 2.31 ± 0.25 |
| ALCVDGDAVVTWDTILNEHF | -0.361 ± 0.97 |
| CQYRTTYSASFLNRS | inactive |
| ITSIANFLWIL | 3.03 ± 0.069 |
| NHVSHWMLSSGKASRYHTRR | 0.142 ± 0.66 |
| TMVGTMVSMF | -0.539 ± 0.45 |
| HLMDSSYGSGSGCSTKTSCV | 0.061 ± 0.28 |
| WICMAP | 3.42 ± 0.089 |
| LGRFYTTCT | -0.981 ± 1.1 |
| YRWSVCCLLVMFWLYDGALL | -0.156 ± 0.8 |
| WCRCTINFRHEDLNPFFNPK | 2.01 ± 0.16 |
| VWIDLSMCIYMLEPLNSLFR | 1.95 ± 0.19 |
| ILYMLPILRKLVSFEFNYIC | 0.117 ± 0.21 |
| RLSQLVLVVWTAQGC | -0.006 ± 0.63 |
| FKLIHAVNFVYLGYAFYAFF | 1.29 ± 0.38 |
| LMWWGMNDSR | -0.025 ± 0.28 |
| TFACGKYVVPFCIYVDR | -0.059 ± 0.34 |
| RRTRKGWIMWPGGVDNHGNY | -0.313 ± 1.3 |
| FGIRVVSR | 0.842 ± 0.73 |
| KVLLR | 0.725 ± 0.36 |

| Substance | amyloid nucleation score |
| --- | --- |
| NLGIWPLYPYFFWLGQIWGD | 0.022 ± 0.77 |
| SVYTNVLDTTNQGTKQNGPR | 1.01 ± 0.47 |
| RGVCSRDVWARLVELTAEMG | 0.459 ± 0.93 |
| VCLSSLIRMCKYSFPDGTGH | 6.813 ± 0.051 |
| ENTLRSYRLGHKVEWLMELG | -0.363 ± 0.39 |
| GFCNYMSFCFHIDASE | 7.587 ± 0.056 |
| GPGPCWKPITGGWRTRKFTR | 0.61 ± 0.56 |
| IGVCILTDRLHD | inactive |
| VLTVRLTMLDCHLAAFSSNA | 1.66 ± 0.16 |
| LGCVVHDCYKVVDGIMSYML | 1.69 ± 0.41 |
| SNRLLGVEAGVGCEIVKYNR | -0.301 ± 0.38 |
| DTSFYIMLNYITIQYNSFAG | 7.86 ± 0.054 |
| SYGWCCTNYNSFVWTYPLTK | 5.79 ± 0.06 |
| LFRSSKSIRSLLSFCSICMF | 5.33 ± 0.076 |
| VLRIDSPLSMILFEVVRCEQ | -0.322 ± 0.31 |
| SWQAVCAMSCCLW | 8.628 ± 0.051 |
| VVESGVFWDSSYNFKGDTVW | 0.532 ± 0.92 |
| WYNGNKSHGRRVPGVQPRAL | -0.046 ± 0.46 |
| IVPAEAVLRRLQRFLRWLVV | -0.245 ± 1.1 |
| GLCVMSYTVDSLLCKGIFR | inactive |
| QTDSTVGD | -0.522 ± 1.4 |
| SLCILDEQVDHFVAEGVGID | 0.876 ± 0.42 |

| Substance | amyloid nucleation score |
| --- | --- |
| ANENLMNRYITNKRSCWCRW | -0.728 ± 0.48 |
| CNFKIVSWVVNQVLFFSHFA | -1.37 ± 2.1 |
| FLVVETI | inactive |
| YIWQGTRFQRGNRIYIGSQG | 0.271 ± 0.54 |
| ELFASTCGFYALHRLGSRPG | 3.04 ± 0.092 |
| DIRWGVSFIKGNFHTEL | inactive |
| YLLCFCR | 0.354 ± 0.27 |
| EQTCVVGPQE | 0.397 ± 1 |
| SDYMLNFCYSGLIVRMVFAA | -0.508 ± 0.98 |
| GFSSVPEGDSINPR | -0.09 ± 0.54 |
| TVNCFDYSVSGVSSNRV | 0.882 ± 0.66 |
| RFRRSLLMYYGTTSVGLLRP | 0.664 ± 1.2 |
| KMSGTLQ | -0.115 ± 1.4 |
| TTFFFDF | 2.59 ± 0.18 |
| IREFRRL | 0.313 ± 0.65 |
| VWKDS | -0.285 ± 0.65 |
| CHEALDLMCHADTVIFALAE | -0.216 ± 0.57 |
| CILLYMQKSIGFGNSVKFAF | inactive |
| AYVKLILCLCRNLDWK | 2.98 ± 0.24 |
| QYCAKSVSFRWCHLSRWLMP | 0.401 ± 0.71 |
| RVKVGSRCVSQFLSTLVQRS | -0.266 ± 1.4 |
| YYIRNYVRFRRS | -0.797 ± 0.48 |

| Substance | amyloid nucleation score |
| --- | --- |
| YVIDGPSLSTCLVRV | 0.839 ± 0.5 |
| PCSSFVNCKIMFLTLMDVVW | 7.739 ± 0.056 |
| LWLHGGARNVDMCKVIFYFG | 6.94 ± 0.088 |
| SYGLCMMAFLSLDAS | 0.517 ± 0.28 |
| FIGVLIRSVCQSGARIV | 0.514 ± 0.17 |
| GLSGYSRVFMTADDVGVRVW | -1.18 ± 1.5 |
| SHDSKAAHPWSLRNYVATRR | 0.182 ± 0.42 |
| FNWSRNHGF | 0.013 ± 0.76 |
| DFMALI | -0.013 ± 0.25 |
| TSTSC | 0.223 ± 0.51 |
| HYRSHSIGIRFAVSDWRIAF | 0.844 ± 0.46 |
| LLGYPSRLRPRYDFLPPGGM | 0.014 ± 0.99 |
| NRPHFKGNQCPQDIS | -0.217 ± 0.22 |
| EDMWNFDRSHGLWYEGTSAM | 0.72 ± 0.69 |
| YGTRVFIGSIRYFRTEEAKI | 0.35 ± 0.72 |
| LKFMSPSLSTIDRDIK | 0.156 ± 0.27 |
| MHEGKRLITGIDWWYVGVCW | 0.094 ± 0.9 |
| YVYNMFRL | 2.88 ± 0.14 |
| PKLRKLVSFYVSYIPGGGYG | -0.106 ± 0.93 |
| RPDALGN | -0.97 ± 0.64 |
| SSFIAYASSDTWFTVKA | 1.09 ± 0.36 |
| SLVFQDRRYLTAFLGFVLWL | -0.476 ± 0.51 |
